Values of other authors in publication PMC12186298, “Phase 1 clinical trial of eneboparatide, a novel PTH receptor 1 agonist” (Endocrine Connections, 2025).

Tested on: patients with hypoparathyroidism
Details: not associated with increased elimination of phosphorus in urine; cited from earlier work
Description: Hyperphosphataemia enhances the risk of long-term development of cardiovascular diseases that is particularly important in patients with renal insufficiency, but also exists in patients with normal renal function ([16]). […] This decrease in sPh was apparent after 14 days of treatment in connection with a reduction in the rate of renal reabsorption of phosphorus. The impact of eneboparatide on sPh was primarily observed within the first 12 h after dosing.

B1: PTH(1–84): parathyroid hormone (1–84) therapy, cited comparator (protein, UniProt P01270 32-115, looked up)
Parathyroid hormone: SVSEIQLMHNLGKHLNSMERVEWLRKKLQDVHNFVALGAPLAPRDAGSQRPRKKEDNVLVESHEKSLGEADKADVNVLTKAKSQ
modifications: Parathyroid hormone
notes: parathyroid hormone (1–84) therapy, cited comparator
With B1 as the molecule, how does the “sPh after the onset of therapy” value read?
The value was “decreased rapidly and significantly”.
